Data as given in publication PMC9580340 (Science (New York, N.y.), 2022).

What was measured:
[1] = target: T1, SARS-CoV-2 D614G spike, full length, on transfected 293T cells (SARS-CoV-2, QHD43416.1 (Wuhan-Hu-1) …, UniProt A0A6H1PJZ3, D614G); test: flow cytometry on cells; conditions: one partner purified
T1 construct: also called ancestral D614G spike

[2] = target: SARS-CoV-2 B.1.1.529 (Omicron; BA.1) spike, full length, on transfected 293T cells (SARS-CoV-2 B.1.1.529 (Omicron BA.1), A67V | H69del | V70del | T95I | G142D | V143del | Y144del | Y145del | N211del | …); test: flow cytometry on cells; conditions: one partner purified
[3] = target: T2, SARS-CoV-2 B.1.1.529 (Omicron) S2P spike, trimeric ectodomain (cryo-EM) (SARS-CoV-2 B.1.1.529 (Omicron BA.1), …, A67V | H69del | V70del | T95I | G142D | V143del | Y144del | Y145del | N211del | …); test: cryo-EM structure; conditions: both partners purified
T2 construct: also called B.1.1.529 spike; B.1.1.529 S2P spike

B1: A19-61.1 IgG1 (antibody, V domains shown)
VH: QVQLVESGGGVVQPGRSLRLSCAASGFTFSSYAFHWVRQAPGKGLEWVAVISYDGSNQYYADSVKGRFTISRDNSKNTLYLQMNSLRADDTAVYYCARDLAIAVAGTWHYYNGMDVWGQGTTVTVSS
VL: DIQMTQSPSSVSASVGDRVIITCRASQGISSWLAWYQQKPGKAPKVLIYDASSLQSGVPSRFSGSGYGTDFTLTISSLQPEDSATYYCQQAKSFPITFGQGTRLEIK
[1]
  binding result: binds

B2: A19-46.1 IgG1 (antibody, V domains shown)
VH: QVQLVESGGGVVQPGRSLRLSCAASGFTLSSYGMHWVRQAPGKGLEWVAVISYDGSNKYYVDSVKGRFTISRDNSKNTLYLQMNSLRAEDTAVYYCARGWAYWELLPDYYYGMDVWGQGTTVTVSS
VL: QTVVTQEPSFSVSPGGTVTLTCGLSSGSVSTAYFPSWYQQTPGQAPRTLIYGTNTRSSGVPDRFSGSILGNKAALTITGAQADDESDYYCVLYMGRGIVVFGGGTKLTVL
[2]
  binding as percent of D614G: 47 % of D614G
[1]
  binding result: binds

B3: Fab A19-46.1 (Fab, V domains shown)
VH: QVQLVESGGGVVQPGRSLRLSCAASGFTLSSYGMHWVRQAPGKGLEWVAVISYDGSNKYYVDSVKGRFTISRDNSKNTLYLQMNSLRAEDTAVYYCARGWAYWELLPDYYYGMDVWGQGTTVTVSS
VL: QTVVTQEPSFSVSPGGTVTLTCGLSSGSVSTAYFPSWYQQTPGQAPRTLIYGTNTRSSGVPDRFSGSILGNKAALTITGAQADDESDYYCVLYMGRGIVVFGGGTKLTVL
notes: 17-residue-long CDR H3
[3]
  stoichiometry N: 2 Fabs per spike trimer
